PMC11352552

T1: recombinant human PSGL-1 Fc fusion protein (human)
T1 sequence (Q14242 whole entry, looked up): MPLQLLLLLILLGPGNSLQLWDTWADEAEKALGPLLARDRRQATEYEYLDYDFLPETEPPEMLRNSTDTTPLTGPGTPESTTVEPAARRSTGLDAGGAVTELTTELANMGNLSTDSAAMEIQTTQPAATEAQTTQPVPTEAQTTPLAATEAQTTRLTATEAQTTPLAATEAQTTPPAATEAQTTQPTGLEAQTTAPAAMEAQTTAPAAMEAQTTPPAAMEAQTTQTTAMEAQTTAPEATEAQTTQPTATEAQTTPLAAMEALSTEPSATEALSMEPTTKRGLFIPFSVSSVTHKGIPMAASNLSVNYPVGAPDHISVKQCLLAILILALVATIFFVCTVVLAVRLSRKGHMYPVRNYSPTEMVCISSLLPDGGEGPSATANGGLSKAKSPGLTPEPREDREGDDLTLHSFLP


Biological target: T1, recombinant human PSGL-1 Fc fusion protein (human)
Assay: ELISA; EC50 of biotinylated P- and L-selectin binding to PSGL-1; the titration itself is not described, the values are given in the competition protocol

EC50 | Molecule
1 nM | biotinylated P-selectin (from UniProt P16109 42-771) (natural protein)
40 nM | biotinylated L-selectin (natural protein, biotinylated) WTYHYSEKPMNWQRARRFCRDNYTDLVAIQNKAEIEYLEKTLPFSRSYYWIGIRKIGGIWTWVGTNKSLTEEAENWGDGEPNNKKNKEDCVEIYIKRNKDAGKWNDDACHKLKAALCYTASCQPWSCSGHGECVEIINNYTCNCDVGYYGPQCQFVIQCEPLEAPELGTMDCTHPLGNFSFSSQCAFSCSEGTNLTGIEETTCGPFGNWSSPEPTCQVIQCEPLSAPDLGIMNCSHPLASFSFTSACTFICSEGTELIGKKKTICESSGIWSNPSPICQKLDKSFSMIKEGDYN
